Target: the molecule itself
Assay: circular dichroism of PilA19 with SDS at pH 3.8; 222 nm/208 nm intensity ratio of 1

B1: PilA19 (truncated PilA pilin peptide of Geobacter sulfurreducens lacking the first 19 N-terminal amino acids of the mature PilA) (peptide)
peptide: AIPQFSAYRVKAYNSAASSDLRNLKTALESAFADDQTYPPES
notes: Recombinant peptide made in E. coli as a CBD-intein fusion and released by DTT-induced intein splicing; 42 residues; It self-assembles into a fibre; also called PilA19 peptide; recombinant PilA19
B1: binds.

From patent US20210070811A1 (BOARD OF TRUSTEES OF MICHIGAN STATE UNIVERSITY, published 2021)
